Data published in patent US9072737B2, “tPA mutant in the treatment of acute brain injury and neurodegenerative disorders” (HADASIT MEDICAL RESEARCH SERVICES & DEVELOPMENT LTD., priority 2008, dated 2015).
Entries after “also recorded” stand apart in the source; their conditions may differ.

B1: tPA-S481A: Recombinant human tPA with Ser481 to Ala point mutation, catalytically inactive, two extra N-terminal residues RS, SEQ ID NO. 1 (protein, listed as Homo sapiens)
chain: RSGARSYQVICRDEKTQMIYQQHQSWLRPVLRSNRVEYCWCNSGRAQCHSVPVKSCSEPRCFNGGTCQQALYFSDFVCQCPEGFAGKCCEIDTRATCYEDQGISYRGTWSTAESGAECTNWNSSALAQKPYSGRRPDAIRLGLGNHNYCRNPDRDSKPWCYVFKAGKYSSEFCSTPACSEGNSDCYFGNGSAYRGTHSLTESGASCLPWNSMILIGKVYTAQNPSAQALGLGKHNYCRNPDGDAKPWCHVLKNRRLTWEYCDVPSCSTCGLRQYSQPQFRIKGGLFADIASHPWQAAIFAKHRRSPGERFLCGGILISSCWILSAAHCFQERFPPHHLTVILGRTYRVVPGEEEQKFEVEKYIVHKEFDDDTYDNDIALLQLKSDSSRCAQESSVVRTVCLPPADLQLPDWTECELSGYGKHEALSPFYSERLKEAHVRLYPSSRCTSQHLLNRTVTDNMLCAGDTRSGGPQANLHDACQGDAGGPLVCLNDGRMTLVGIISWGLGCGQKDVPGVYTKVTNYLDWIRDNMRP
B2: WT tPA: Recombinant wild type human tissue plasminogen activator expressed in S2 Drosophila system, SEQ ID NO. 2 (protein, listed as Homo sapiens)
chain: GARSYQVICRDEKTQMIYQQHQSWLRPVLRSNRVEYCWCNSGRAQCHSVPVKSCSEPRCFNGGTCQQALYFSDFVCQCPEGFAGKCCEIDTRATCYEDQGISYRGTWSTAESGAECTNWNSSALAQKPYSGRRPDAIRLGLGNHNYCRNPDRDSKPWCYVFKAGKYSSEFCSTPACSEGNSDCYFGNGSAYRGTHSLTESGASCLPWNSMILIGKVYTAQNPSAQALGLGKHNYCRNPDGDAKPWCHVLKNRRLTWEYCDVPSCSTCGLRQYSQPQFRIKGGLFADIASHPWQAAIFAKHRRSPGERFLCGGILISSCWILSAAHCFQERFPPHHLTVILGRTYRVVPGEEEQKFEVEKYIVHKEFDDDTYDNDIALLQLKSDSSRCAQESSVVRTVCLPPADLQLPDWTECELSGYGKHEALSPFYSERLKEAHVRLYPSSRCTSQHLLNRTVTDNMLCAGDTRSGGPQANLHDACQGDSGGPLVCLNDGRMTLVGIISWGLGCGQKDVPGVYTKVTNYLDWIRDNMRP

Assays:
[1] = system: CHI mice; test: Neurological severity score (NSS) in closed head injury (CHI) model; type: in vivo; conditions: for NSS at day 20 following CHI: FIG. 2, 100 μg/mice i.p. two hours after CHI, compared with saline control
Description: Briefly, after induction of ether anesthesia, a midline longitudinal incision was made, the skin was retracted and the skull was exposed. The left anterior frontal area was identified and a Teflon tipped cone (2-mm diameter) was placed 1 mm lateral to the midline, in the midcoronal plane. The head was held in place manually and a 75-g weight was dropped on the cone from a height of 18 cm, resulting in focal injury to the left hemisphere. […] In sham controls only anesthesia and skin incision were carried out.
Animals were awarded one point for failure to perform one item, so that scores can range from zero (healthy uninjured animals) to a maximum of 10, indicating severe neurological dysfunction, with failure to perform all tasks. The NSS obtained 1 h after trauma reflects the initial severity of injury and is inversely correlated with the neurological outcome. Animals were evaluated 5 h after CHI, and every two to three days until 20 days later. Each animal was assessed by an observer who was blinded to the treatment.
tPA has been reported to signal within the central nervous system by activating NMDA-R, a receptor for glutamine, implicated in neurotoxicity and exictotoxic neuronal cell death, through the cleavage of the NR-1 subunit of NMDA-R. The inventors therefore examined the effect of inhibiting tPA activation of NMDA-R on acute brain trauma, using a tPA mutated molecule devoid of serine protease catalytic activity. […] The effect of administering mutant tPA compositions was assessed using neurobehavioral evaluation based on the determination of a neurological severity score (NSS).

[2] = system: CHI mice; test: Brain lesion size at day 20 post CHI; type: in vivo; conditions: p<0.005 vs control animals
Protocol: After the last NSS evaluation (day 20 post CHI) the brains were then extracted and sectioned coronally into 1-mm segments. The sections were photographed and the area of each section was determined using the NIH computer image analysis program. Any missing area was estimated by overlaying the affected section with images from the contralateral side from the same animal. The volume of the missing portion of the brain was defined as the sum of the missing areas in all sections multiplied by their thickness expressed in cubic pixels. […] Taken together, the data collected indicate that the tPA-S481A has a neuroprotective effect.

[3] = system: Blood Brain Barrier (BBB); test: Blood brain barrier permeability, Evans blue uptake into brain; type: in vivo, mice; conditions: single i.p. injection 1 mg/kg, FIG. 3 and FIG. 4A
Protocol: The uptake of Evans blue dye into a brain tissue served as a marker to for quantifying disruption of the blood-brain barrier and increase in permeability of the BBB. […] Data was expressed as absorbance at 620 nm per gram of tissue. The mean±SEM of data from 8-9 animals/group are shown.
FIG. 4A. Mice were injected i.p. with 25 μl of saline or saline containing either WT-tPA or mtPA (1 mg/kg each) alone or together with PAI-1 derived 18 amino acids (aa) (as denoted by SEQ ID NO. 8) or 6 aa (as denoted by SEQ ID NO. 3) peptides (1 mg/kg each). Ten minutes later, the mice were given an i.v. injection of 2% Evans blue (EB) in saline. One hour after injection of dye, organs were cleared of blood by transcardiac perfusion. […] Extruded dye was quantified by absorbance at 620 nm. The figure presents a histogram illustration of the absorbance of EB at […] per gram of tissue. […]
To determine the effect of injection of tPA-S^481A on BBB function, anesthetized mice were injected i.p. with 25 μl of saline or saline containing tPA or tPA mutant (tPA-Ser^481Ala) (1 mg/kg each), followed by the intravenous injection of 2% Evans blue in saline. Evans blue was quantified by absorbance at 620 nm.
Plasminogen activator inhibitor-1 (PAI-1) is recognized as the inhibitor of tPA. […] Extruded dye was quantified by absorbance at 620 nm. Data are expressed in FIG. 4A as absorbance per gram of tissue.

[4] = system: Blood Brain Barrier (BBB) after CHI; test: Duration of BBB permeability after CHI, Evans blue extravasation; type: in vivo, mice; conditions: mtPA i.p. 1, 2 or 3 hours after CHI; EB measured one hour after dye; FIG. 5
Protocol: Mice were treated with i.p. injection of mtPA 1, 2 or 3 hours after CHI. Five minutes after mtPA injection, the animals were given an IV injection of 2% Evans blue (EB) in saline. Extravasation of EB was measured one hour after injection of the dye. The figure presents a histogram illustration of the absorbance of EB at 620 nM per gram of tissue. The mean±SEM of data from 8-9 animals/group is shown. Abbreviations: Abs (Absorbance), T (time), h (hour), min. (minutes).
To examine the effect of tPA-S481A (mtPA) on BBB permeability after opening due to CHI, the tPA mutant was injected to 8-9 mice i.p. 1, 2 or 3 hours after CHI. Mice undergoing CHI alone served as controls for the indication of normal BBB behavior after head trauma. In both groups, the extravasation of EB was measured one hour after injection of the dye.

[5] = system: CHI mice; test: Lactate and glutamate concentration in CSF after CHI; type: in vivo; conditions: 100 μg/mice i.p. two hours after CHI
Protocol: CSF samples were taken from the cisterna magna in anaesthetized mice, using a microcapillary as described by others. Samples were immediately frozen at −70° C. until analysis by high-performance liquid chromatography (HPLC). Glutamate and lactate were derivatized using ortho-phthaldialdehyde/b-mercaptoethanol and the samples were injected onto the column. Peaks were detected using a fluorescence detector.
Therefore, groups of 8-9 animals were injected with mutant tPA, (100 μg/mice) in saline or saline alone intraperitoneally (i.p.) two hours after the head trauma and, the concentration of lactate and glutamate in the CSF have been measured.

[6] = system: plasminogen; test: PA catalytic activity of tPA mutant; type: biochemical; conditions: data not shown
Description: Tissue type plasminogen activator (tPA) a multidomain, glycosylated, serine protease is a fibrin specific activator of plasminogen and a very effective thrombolytic agent. It should be appreciated that “mutated tPA” or “mtPA” as used herein includes a mutated native tPA and recombinant mutated tPA, as well as modified forms of tPA that is devoid of the enzymatic activities of native tPA. More specifically, as used herein in the specification and in the claims section below, the term “devoid of protease or serine protease catalytic activity” and its derivatives refers to a mutated tPA molecule having impaired, decreased or reduced expression of activity. A preferred mutated tPA molecule lacks any catalytic activity. According to one embodiment of the present invention at least about 10-100%, more specifically, about 10%, 15%, 20%, 25%, 30%, 35%, 40%, 45%, 50%, 55%, 60%, 65%, 70%, 75%, 80%, 85%, 90%, 95%, 99% and even 100% of the tPA activity is abolished by the point mutation performed by the invention, as compared to the WT (wild type) tPA activity. It should be noted that the enzymatic activity of tPA can be measured by assessing the ability of the molecule to convert plasminogen to plasmin.

Molecule	neurological severity score (NSS) ([1]; FIG. 1, 100 μg/mice i.p. two hours after head trauma, 10-point scale)	NSS at day 20 following CHI [1]	Lesion size (volume of missing portion of the brain) [2] [pixels]	BBB permeability (Evans blue absorbance at 620 nm per gram of tissue) ([3]; 1 mg/kg)	duration of increased BBB permeability after CHI [4]	accumulation of lactate in CSF post-TBI ([5]; FIG. 6A)	accumulation of glutamate in CSF post-TBI ([5]; FIG. 6B)	PA catalytic activity [6]	BBB permeability (Evans blue absorbance at 620 nm per gram of tissue) [3]
B1	0.43	significantly improved initial (not shown) and long-term (FIG. 2) neurological outcome	41525±10987	increased BBB permeability similar to the results of wild type; also recorded: increases BBB permeability to the same extent as WT-tPA	markedly extended the duration of increased BBB permeability	clearly alleviates the accumulation	clearly alleviates the accumulation	lacks any PA catalytic activity	–
B2	–	significantly higher than that of control mice	167289±31456	–	–	–	–	–	increased BBB permeability
